Test results reported in patent US6451576B1, “Sesquiterpene synthases from grand fir (Abies grandis), and methods of use” (Washington State University Research Foundation, priority 1998, dated 2002).

How the values were obtained:
[1] = substrate: CC(C)=CCC/C(C)=C/CC/C(C)=C/CO[P@@](=O)(O)OP(=O)(O)O; test: Kinetic parameters, metal ion requirement and substrate specificity of recombinant δ-selinene synthase; format: biochemical, Abies grandis; settings: other: δ-selinene synthase; estimated; 31.0 °C
Experimental: (§1) The assay for recombinant sesquiterpene synthase (cyclase) activity was performed in 1 ml of buffer (extraction buffer without MnCl2 or the polymeric adsorbents) containing 3.5 μM [1-^3H]farnesyl diphosphate and the total protein extracted from a 5 ml bacterial culture to produce 10^5-10^6 dpm of product in 2 h at 31° C. The incubation mixture was overlaid with 1 ml pentane to trap volatile products. After incubation, the reaction mixture was extracted with pentane (3×1 ml) and the combined extract was passed through a MgSO4-silica gel column to provide the terpene hydrocarbon fractions as before. The columns were subsequently eluted with 3×1 ml of ether to collect any oxygenated products, and an aliquot of each fraction was taken for liquid scintillation counting to determine conversion rate. […]
(§2) Substrate specificity of δ-selinene synthase (SEQ ID No:20) and γ-humulene synthase (SEQ ID No:24) was evaluated by comparing farnesyl diphosphate (C15) to geranyl diphosphate (C10) and geranylgeranyl diphosphate (C20) at saturation as precursors of the respective terpene olefins. […] The identities of the monoterpene products produced by the sesquiterpene synthases were determined by GLC-MS and are set forth in FIG. 4.

[2] = substrate: CC(C)=CCC/C(C)=C/CC/C(C)=C/CO[P@@](=O)(O)OP(=O)(O)O; test: Kinetic parameters, metal ion requirement and substrate specificity of recombinant γ-humulene synthase; format: biochemical, Abies grandis; settings: other: γ-humulene synthase; estimated; 31.0 °C
Experimental: as §1, §2

B1: δ-selinene synthase (SEQ ID No:20) (Abies grandis) (protein)
chain: MAEISESSIPRRTGNHHGNVWDDDLIHSLNSPYGAPAYYELLQKLIQEIKHLLLTEMEMDDGDHDLIKRLQIVDTLECLGIDRHFEHEIQTAALDYVYRWWNEKGIGEGSRDSFSKDLNATALGFRALRLHRYNVSSGVLKNFKDENGKFFCNFTGEEGRGDKQVRSMLSLLRASEISFPGEKVMEEAKAFTREYLNQVLAGHGDVTDVDQSLLREVKYALEFPWHCSVPRWEARSFLEIYGHNHSWLKSNINQKMLKLAKLDFNILQCKHHKEIQFITRWWRDSGISQLNFYRKRHVEYYSWVVMCIFEPEFSESRIAFAKTAILCTVLDDLYDTHATLHEIKIMTEGVRRWDLSLTDDLPDYIKIAFQFFFNTVNELIVEIVKRQGRDMTTIVKDCWKRYIESYLQEAEWIATGHIPTFNEYIKNGMASSGMCILNLNPLLLLDKLLPDNILEQIHSPSKILDLLELTGRIADDLKDFEDEKERGEMASSLQCYMKENPESTVENALNHIKGILNRSLEEFNWEFMKQDSVPMCCKKFTFNIGRGLQFIYKYRDGLYISDKEVKDQIFKILVHQVPMEE
notes: made in house; host or cells: E. coli XL1-Blue/pGAG4 or E. coli BL21(DE3)/pSBAG4
Km [1]: 1.5 µM

B2: γ-humulene synthase (SEQ ID No:24) (Abies grandis) (protein)
chain: MAQISESVSPSTDLKSTESSITSNRHGNMWEDDRIQSLNSPYGAPAYQERSEKLIEEIKLLFLSDMDDSCNDSDRDLIKRLEIVDTVECLGIDRHFQPEIKLALDYVYRCWNERGIGEGSRDSLKKDLNATALGFRALRLHRYNVSSGVLENFRDDNGQFFCGSTVEEEGAEAYNKHVRCMLSLSRASNILFPGEKVMEEAKAFTTNYLKKVLAGREATHVDESLLGEVKYALEFPWHCSVQRWEARSFIEIFGQIDSELKSNLSKKMLELAKLDFNILQCTHQKELQIISRWFADSSIASLNFYRKCYVEFYFWMAAAISEPEFSGSRVAFTKIAILMTMLDDLYDTHGTLDQLKIFTEGVRRWDVSLVEGLPDFMKIAFEFWLKTSNELIAEAVKAQGQDMAAYIRKNAWERYLEAYLQDAEWIATGHVPTFDEYLNNGTPNTGMCVLNLIPLLLMGEHLPIDILEQIFLPSRFHHLIELASRLVDDARDFQAEKDHGDLSCIECYLKDHPESTVEDALNHVNGLLGNCLLEMNWKFLKKQDSVPLSCKKYSFHVLARSIQFMYNQGDGFSISNKVIKDQVQKVLIVPVPI
notes: For further subcloning of the amplified, full-length cDNA into the pSBETa vector for high-level expression, the pGAG5 insert was amplified; made in house; host or cells: E. coli XL1-Blue/pGAG5 or E. coli BL21(DE3)/pSBAG5
Km [2]: 4.5 µM
